Legend:
GST-MAGE-G1 = biological target: T1, GST-MAGE-G1 (human, UniProt Q96MG7 1-304); test: pull-down
T1 sequence (looked up): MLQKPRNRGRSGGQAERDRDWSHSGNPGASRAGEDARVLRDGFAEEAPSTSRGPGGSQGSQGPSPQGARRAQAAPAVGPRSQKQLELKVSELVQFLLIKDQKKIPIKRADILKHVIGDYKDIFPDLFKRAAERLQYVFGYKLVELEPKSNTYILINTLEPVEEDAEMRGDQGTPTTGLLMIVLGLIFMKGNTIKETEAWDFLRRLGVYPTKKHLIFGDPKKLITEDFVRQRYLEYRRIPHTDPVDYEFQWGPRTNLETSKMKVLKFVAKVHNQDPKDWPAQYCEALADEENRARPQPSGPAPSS

[1] = biological target: T2, MAGE-G1 (full length, coexpressed with NSE1) (human, UniProt Q96MG7 1-304); test: co-purification after coexpression in bacteria
T2 sequence (looked up): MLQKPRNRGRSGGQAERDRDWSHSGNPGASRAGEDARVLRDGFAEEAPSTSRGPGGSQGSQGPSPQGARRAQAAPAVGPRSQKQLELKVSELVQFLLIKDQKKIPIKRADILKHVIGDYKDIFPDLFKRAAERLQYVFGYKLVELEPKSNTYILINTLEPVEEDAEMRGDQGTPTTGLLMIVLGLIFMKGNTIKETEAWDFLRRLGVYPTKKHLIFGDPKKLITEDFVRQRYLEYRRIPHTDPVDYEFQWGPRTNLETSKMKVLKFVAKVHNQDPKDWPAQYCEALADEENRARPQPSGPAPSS

B1: NSE1 (purified recombinant) (natural protein, UniProt Q8WV22 1-266, looked up)
chain: MQGSTRRMGVMTDVHRRFLQLLMTHGVLEEWDVKRLQTHCYKVHDRNATVDKLEDFINNINSVLESLYIEIKRGVTEDDGRPIYALVNLATTSISKMATDFAENELDLFRKALELIIDSETGFASSTNILNLVDQLKGKKMRKKEAEQVLQKFVQNKWLIEKEGEFTLHGRAILEMEQYIRETYPDAVKICNICHSLLIQGQSCETCGIRMHLPCVAKYFQSNAEPRCPHCNDYWPHEIPKVFDPEKERESGVLKSNKKSLRSRQH
B1: binds (GST-MAGE-G1).

B2: NSE1 (full length, coexpressed with MAGE-G1) (natural protein, UniProt Q8WV22 1-266, looked up)
chain: MQGSTRRMGVMTDVHRRFLQLLMTHGVLEEWDVKRLQTHCYKVHDRNATVDKLEDFINNINSVLESLYIEIKRGVTEDDGRPIYALVNLATTSISKMATDFAENELDLFRKALELIIDSETGFASSTNILNLVDQLKGKKMRKKEAEQVLQKFVQNKWLIEKEGEFTLHGRAILEMEQYIRETYPDAVKICNICHSLLIQGQSCETCGIRMHLPCVAKYFQSNAEPRCPHCNDYWPHEIPKVFDPEKERESGVLKSNKKSLRSRQH
B2: binds [1].
